Source: patent US20180312557A1, “Leg1 Protein, Leg1 Gene, and Uses and Drugs thereof” (ZHEJIANG UNIVERSITY, priority 2016, published 2018)

Key:
[1] = tested on: Akt phosphorylation of the HepG2 cells; assay: Akt phosphorylation of HepG2 cells incubated with mLeg1 protein partially purified from salivary glands (Western blot); format: cell-based, human
Description: 16.1.1 The salivary glands of two to three wild-type mice were harvested and rinsed in the pre-cooled PBS buffer, minced into fine pieces with scissors, and then transferred to a tissue homogenizer, added with 4 ml of lysate buffer (50 mM Tris-Hcl, pH 8.0, 150 mM NaCl, 0.5% NP40, 2× complete), fully homogenized on ice by pipetting through a 23G needle repeatedly, incubated for 30 minutes at 4° C. in a vertical shaker, and then centrifuged at 12000 g at 4° C. for 15 minutes to collect the supernatant.
16.1.2 The supernatant was passed through a sepharose 6B gel filtration column at a constant speed at 4° C., wherein the PBS buffer was used for elution, and different eluted components were separately collected by 4 ml per tube.
16.1.3 The content of mLeg1 in each tube was detected by Western blot. The tube with the highest mLeg1 content was taken as partially purified mLeg1, and the concentration of mLeg1 protein was estimated using the recombinantly-expressed mLeg1 protein in Escherichia coli as a reference, for subsequent experiments.
16.1.4 The partially purified mLeg1 protein was diluted to different concentrations (3.14×10^−2 ng/0.314 ng/μl and 3.14 ng/μl), and the different concentrations of mLeg1 protein were added to HepG2 culture medium respectively to culture HepG2, followed by incubation at 37° C. for 20 minutes, then total protein was extracted (as to the method of extraction, reference can be made to step 13.2), and Akt phosphorylation level at the different concentrations was detected by Western blot (referring to step 14.3, anti-p-Akt antibody (S473, Cell signaling #4060P) was selected as the corresponding antibody, and the dilution ratio was 1:1000).
16.2.1 mLeg1 protein-enriched components from wild-type mice and from mLeg1^Δ/Δ mice were extracted respectively. […]
16.2.3 The Akt phosphorylation level at different concentrations was detected by Western blot (reference can be made to step 13.2 for details, anti-p-Akt antibody (S473, Cell signaling #4060P) was selected as the corresponding antibody, and the dilution ratio in use was 1:1000).

[2] = tested on: Akt phosphorylation of the HepG2 cells; assay: Akt phosphorylation of HepG2 cells incubated with salivary gland cell culture supernatant (Western blot); format: cell-based, human; details: wild type supernatant containing mLeg1
Description: 14.1 Culture of human liver cancer cells HepG2: 10% newborn calf serum (GIBCO Cat. No. 16010-159) in DMEM high-glucose culture medium was used to culture the cell line. Cells were kept in a 37° C. incubator with 5% CO2, and saturated humidity. At the time of passage, the culture solution was thoroughly removed, and the left cells was digested with 0.25% typsin (EDTA-free, Sigma Cat. No. T4549), and an appropriate amount of cells were subjected to subculture or subsequent experiments.
14.2 The adherent HepG2 cells were incubated using the culture supernatant of the primary culture of the wild-type mouse salivary gland cells and the culture supernatant of the mLeg1^Δ/Δ mice, and the cell samples were collected 20 minutes later and 10 hours later.
14.3 The content of p-Akt was detected using an Akt phosphorylation antibody by Western blot, so as to reflect Akt phosphorylation level.

B1: mLeg1 protein: mouse secretory protein (SEQ ID NO: 2) encoded by mLeg1 gene, partially purified from salivary glands by column chromatography (protein, listed as Mus musculus)
chain: MAVLASWVWVLAGCFCAAVAEVSDSSDPYPPLWEDSPEQLSDYMMEDGNYIINPWVYTDRMGMYRILLEETAMYFAKYGPENEQNLLWGLPLQFGWQYQSGRLADPTGMTDCGNELNESLCVSVDSWWADINYYLSVIPFLAAVDSGITGISPNQITILPPPKDQMRFCYNVSDCQSAVPGTMNRWRDFFQYMQLNSSDFDGLLNYLWEAHASSLDYPTSAFGDRYNFYSEKEANFEENWAIAVNYLAAARLPTTQNRTYSFQRGLPPRVLVDTDIAPFIPDFTPLQNEVLVSLKLLGDTDRNSGSLSLTLWENLMSTKLARTLFLKAFEEFLATSS
modifications: partially purified
induction of Akt phosphorylation ([1]; HepG2, 37° C. 20 minutes, 3.14×10^−2, 0.314 and 3.14 ng/μl): could induce Akt phosphorylation | level of partially purified mLeg1 able to induce Akt phosphorylation of the HepG2 cells ([1]; HepG2, 20 minutes): nanogram levels | ability to induce Akt phosphorylation ([1]; HepG2, 20 minutes, compared with corresponding components of mLeg1Δ/Δ salivary glands): significantly higher | time within which Akt phosphorylation is induced [2]: ≤ 20 min
